Results on two variants are retold here after IntAct's records for PubMed 19864458.

First the molecules themselves.
B1: MICAL-like protein 1 (Homo sapiens), Q8N3F8 (parent)
chain: MAGPRGALLAWCRRQCEGYRGVEIRDLSSSFRDGLAFCAILHRHRPDLLDFDSLSKDNVFENNRLAFEVAEKELGIPALLDPNDMVSMSVPDCLSIMTYVSQYYNHFCSPGQAGVSPPRKGLAPCSPPSVAPTPVEPEDVAQGEELSSGSLSEQGTGQTPSSTCAACQQHVHLVQRYLADGRLYHRHCFRCRRCSSTLLPGAYENGPEEGTFVCAEHCARLGPGTRSGTRPGPFSQPKQQHQQQLAEDAKDVPGGGPSSSAPAGAEADGPKASPEARPQIPTKPRVPGKLQELASPPAGRPTPAPRKASESTTPAPPTPRPRSSLQQENLVEQAGSSSLVNGRLHELPVPKPRGTPKPSEGTPAPRKDPPWITLVQAEPKKKPAPLPPSSSPGPPSQDSRQVENGGTEEVAQPSPTASLESKPYNPFEEEEEDKEEEAPAAPSLATSPALGHPESTPKSLHPWYGITPTSSPKTKKRPAPRAPSASPLALHASRLSHSEPPSATPSPALSVESLSSESASQTAGAELLEPPAVPKSSSEPAVHAPGTPGNPVSLSTNSSLASSGELVEPRVEQMPQASPGLAPRTRGSSGPQPAKPCSGATPTPLLLVGDRSPVPSPGSSSPQLQVKSSCKENPFNRKPSPAASPATKKATKGSKPVRPPAPGHGFPLIKRKVQADQYIPEEDIHGEMDTIERRLDALEHRGVLLEEKLRGGLNEGREDDMLVDWFKLIHEKHLLVRRESELIYVFKQQNLEQRQADVEYELRCLLNKPEKDWTEEDRAREKVLMQELVTLIEQRNAIINCLDEDRQREEEEDKMLEAMIKKKEFQREAEPEGKKKGKFKTMKMLKLLGNKRDAKSKSPRDKS
partner: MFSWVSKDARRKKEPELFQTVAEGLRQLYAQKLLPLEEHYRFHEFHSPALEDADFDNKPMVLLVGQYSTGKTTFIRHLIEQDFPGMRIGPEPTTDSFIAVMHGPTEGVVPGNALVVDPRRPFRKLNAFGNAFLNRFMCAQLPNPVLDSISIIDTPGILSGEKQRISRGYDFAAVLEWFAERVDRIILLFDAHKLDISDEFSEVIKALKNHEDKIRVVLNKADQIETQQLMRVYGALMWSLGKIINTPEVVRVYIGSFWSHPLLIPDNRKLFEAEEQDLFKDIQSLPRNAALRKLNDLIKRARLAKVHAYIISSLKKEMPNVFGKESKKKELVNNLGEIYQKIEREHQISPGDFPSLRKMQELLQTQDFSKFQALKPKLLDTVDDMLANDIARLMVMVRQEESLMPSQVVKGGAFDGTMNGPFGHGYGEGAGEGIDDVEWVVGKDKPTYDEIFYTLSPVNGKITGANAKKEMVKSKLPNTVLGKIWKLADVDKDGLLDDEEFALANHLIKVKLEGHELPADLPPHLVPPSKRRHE
B2: EH domain-containing protein 1 (Homo sapiens), Q9H4M9 (parent)
chain: B1 partner

The variants in the first test derive from B1. Conditions: with ehd1_human EHD1, Q9H4M9.
N425A;F427A: the “effect of a mutation on the interaction” value is reported as “disrupting interaction”.

Variants of B1 are the subject of the next test. To be noted: with ehd1_human EHD1, Q9H4M9. The source holds these as a separate data set.
Take N425A;F427A: the “effect of a mutation on the interaction” value is “decreasing interaction”.

Variants of B2 are the subject of a further test. To be noted: with milk1_human MICALL1, Q8N3F8.
As to MFSWVSKDARRKKEPELFQTVAEGLRQLYAQKLLPLEEHYRFHEFHSPALEDADFDNKPMVLLVGQYSTGKTTFIRHLIEQDFPGMRIGPEPTTDSFIAVMHGPTEGVVPGNALVVDPRRPFRKLNAFGNAFLNRFMCAQLPNPVLDSISIIDTPGILSGEKQRISRGYDFAAVLEWFAERVDRIILLFDAHKLDISDEFSEVIKALKNHEDKIRVVLNKADQIETQQLMRVYGALMWSLGKIINTPEVVRVYIGSFWSHPLLIPDNRKLFEAEEQDLFKDIQSLPRNAALRKLNDLIKRARLAKVHAYIISSLKKEMPNVFGKESKKKELVNNLGEIYQKIEREHQISPGDFPSLRKMQELLQTQDFSKFQALKPKLLDTVDDMLANDIARLMVMVRQEESLMPSQVVKGGAFDGTMNGPFGHGYGEGAGEGIDDVEWVVGKDKPTYDEIFYTLSPVNGKITGANAKKEMVKSKLPNTVLGEIWKLADVDKDGLLDDEEFALANHLIKVKLEGHELPADLPPHLVPPSKRRHE [K483E], the “effect of a mutation on the interaction” value is “with no effect”.
